According to the Human Domainome abundance scans (Beltran et al. 2025):

B1: Gamma-crystallin D, residues 90 to 170; numbered along this chain, P07320 (parent)
chain: IRLYEREDYRGQMIEFTEDCSCLQDRFRFNEIHSLNVLEGSWVLYELSNYRGRQYLLMPGDYRRYQDWGATNARVGSLRRV

Variants of: B1
Experiment: abundance fitness (aPCA) (normalised: wild type 0, dead -1); higher = more abundant; growth selection in yeast, the domain comes from the species named
Details: Homo sapiens

Abundance fitness, by site and new letter:
H33: P 0.062, M 0.05, K -0.057, S 0.118, L -0.024, G 0.079, N -0.082, A 0.039, R -0.005, Q 0.04, E 0.078, C -0.01, T -0.065, V 0.04, W 0.02, I 0.07, F -0.023, D 0.011
L35: R -0.863, Y -0.249, W -0.552, A 0.024, V 0.048, Q -0.01, P -1, I 0.231, S -0.035, N -0.156, T -0.034, H -0.535, E -1.08, G 0.035, F 0.148, M -0.036
L23: A 0.086, I -0.098, S 0.14, T 0.004, K -0.033, C -0.023, P -0.029, G -0.24, N -0.055, R -0.332, Q -0.217, H -0.833, V -0.043, F -0.027, W -0.215
W42: H -0.38, M -0.388, Q -0.969, A -0.554, G -1.1, D -1, N -0.774, L -0.201, C -0.272, E -1.07, F -0.105, I -0.029, P -0.923, R -0.994
S41: G 0.064, K 0.045, Y -0.078, R 0.021, V -0.138, Q 0.022, N -0.175, T -0.09, L -0.363, E 0.076, H -0.006, M -0.285, A -0.222, I -0.161, W -0.207, F -0.384, D -0.007, P -0.171
F29: P 0.069, D 0.008, I -0.112, H -0.066, L -0.012, N -0.064, E 0.05, C 0.036, W 0.031, T -0.135, G -0.007, R 0.117, Q 0.041, Y 0.161, S 0.093, V -0.072, A 0.008
F27: M -0.129, E 0.065, P 0.103, L -0.105, N -0.086, V -0.092, S 0.011, R -0.126, K -0.009, A -0.056, Y -0.048, H -0.343, C -0.031, G -0.106, T -0.09, I -0.035, D 0.012, W -0.103
G40: S -0.021, Q -0.053, I -0.113, Y -0.104, N -0.228, M -0.13, F -0.031, T -0.041, K -0.187, L -0.143, A -0.014, H 0.132, E 0.076, R -0.142, V 0.025, D 0.011, P -0.077, C -0.039
S34: R -0.766, W -0.828, I -0.84, H -0.771, A 0.112, E -0.853, Y -0.893, M -0.689, D -0.936, C -0.014, T -0.924, G -0.099, V -1.08, P -1.03
N36: D -0.051, E 0.023, R 0.006, V -0.098, Q 0.051, H -0.058, M -0.112, C -0.054, S 0.135, K -0.023, F 0.114, Y -0.086, T -0.153, W 0.076, A 0.045, I -0.05, G -0.087, P -1.23
L38: S -0.065, V -0.045, G 0.016, I 0.007, W 0.153, K -0.141, D 0.064, T -0.055, M -0.035, A -0.066, H 0.024, R 0.029, P 0.012, Q -0.007, C -0.102
C22: S 0.015, R -0.044, W -0.107, Y -0.009, V -0.08, Q -0.023
V37: K -0.7, A 0.01, F 0.159, G -0.218, I 0.091, L 0.096, T 0.091, D 0.165, P 0.153, H -0.086, C -0.126, W -0.895, Q -0.306, E -1.11, S 0.137, M -0.338
R26: P 0.071, G -0.018, N 0.039, V -0.006, C 0.091, E 0.047, F -0.292, D -0.053, Q 0.032, A -0.027, M -0.007, W 0.061, T -0.048, Y 0.095, S 0.05, H 0.008
Q24: H 0.08, W -0.073, N -0.022, G 0.01, S -0.008, Y -0.045, R 0.013, C -0.025, K 0.068, E 0.029, V -0.086, I -0.038, A -0.021, D -0.051, P 0.02, M 0.167, T -0.08
R28: H -0.32, G -0.031, A -0.005, K 0.139, Q 0.1, P -0.023, E -0.177, S 0.024, L -0.043, D 0.128, T -0.002, C -0.047, I 0.029, Y -0.004, F -0.203, M 0.065
E31: M 0.03, P 0.152, K -0.004, R 0.004, Q 0.116, V -0.105, C -0.192, S -0.123, I 0.139, W 0.078, T 0.048, L 0.054, G 0.035, F -0.109, N 0.005, H 0.059, D -0.096
D25: S -0.127, A 0.005, E 0.088, R -0.045, N -0.197, C -0.308, M -0.149, T -0.168, K 0.103, G 0.041, Y -0.17, P 0.073, W -0.087, I -0.052, L 0.06, F -0.036, V -0.051
N30: T 0.038, G 0.054, R 0.024, D 0.018, L -0.122, M -0.051, A 0.028, V 0.143, K 0.107, Y -0.1, I 0.187, H -0.081, E 0.092, W -0.036
I32: Y 0.325, K -0.235, G 0.063, S -0.007, R -0.062, F -0.001, L 0.119, V 0.127, D -0.346, C 0.032, T -0.037, N -0.101, W 0.067, E -0.201, A -0.11, P -0.003, M 0.02, Q -0.251
E39: R 0.016, H 0.165, D -0.039, W -0.176, C -0.156, G 0.084, Q -0.084, P -0.78, F -0.262, T 0.059, M -0.054, K -0.065, A 0.074, I -0.03, L -0.061, S -0.024
